Values joined by “and” are separate entries in the source; they are usually repeats but may differ in a detail not shown here. Equal entries are not always repeated.
Key:
[1] = molecular target: Asn3-ISP (intracellular subtilisin protease from Planococcus sp. AW02J18, starting at Asn3) (Planococcus sp. AW02J18); assay: SEC; pre-calibrated Superdex 200 10/300 GL; 500 µl Asn3-ISP at 0.8 mg/mL; 50 mM Tris-HCl pH 7.5, 150 mM NaCl; with 2 mM CaCl2 added immediately before the run
[2] = molecular target: Asn3-ISP (intracellular subtilisin protease from Planococcus sp. AW02J18, starting at Asn3) (Planococcus sp. AW02J18); assay: SEC; pre-calibrated Superdex 200 10/300 GL; 500 µl Asn3-ISP at 0.8 mg/mL; 50 mM Tris-HCl pH 7.5, 150 mM NaCl; without calcium or with 1 mM EDTA (overnight)

stoichiometry N (monomers per oligomer) [1]: 3.7 and 2.5
stoichiometry N (monomers per oligomer) [2]: 3.3
Substance: Asn3-ISP (intracellular subtilisin protease from Planococcus sp. AW02J18, starting at Asn3) (enzyme)

Source: PMC6220982
